Experimental findings from paper PMC7717530, “EphA7 isoforms differentially regulate cortical dendrite development” (PLoS ONE, 2020) are described below.

This experiment deals with EphA7 full-length isoform with hemagglutinin tag (EphA7-FL-HA) (UniProt Q61772-1 28-998). The experiment in a line: cell-based or functional assay.
Chain of EphA7 full-length isoform with hemagglutinin tag (EphA7-FL-HA) (Q61772 28-998): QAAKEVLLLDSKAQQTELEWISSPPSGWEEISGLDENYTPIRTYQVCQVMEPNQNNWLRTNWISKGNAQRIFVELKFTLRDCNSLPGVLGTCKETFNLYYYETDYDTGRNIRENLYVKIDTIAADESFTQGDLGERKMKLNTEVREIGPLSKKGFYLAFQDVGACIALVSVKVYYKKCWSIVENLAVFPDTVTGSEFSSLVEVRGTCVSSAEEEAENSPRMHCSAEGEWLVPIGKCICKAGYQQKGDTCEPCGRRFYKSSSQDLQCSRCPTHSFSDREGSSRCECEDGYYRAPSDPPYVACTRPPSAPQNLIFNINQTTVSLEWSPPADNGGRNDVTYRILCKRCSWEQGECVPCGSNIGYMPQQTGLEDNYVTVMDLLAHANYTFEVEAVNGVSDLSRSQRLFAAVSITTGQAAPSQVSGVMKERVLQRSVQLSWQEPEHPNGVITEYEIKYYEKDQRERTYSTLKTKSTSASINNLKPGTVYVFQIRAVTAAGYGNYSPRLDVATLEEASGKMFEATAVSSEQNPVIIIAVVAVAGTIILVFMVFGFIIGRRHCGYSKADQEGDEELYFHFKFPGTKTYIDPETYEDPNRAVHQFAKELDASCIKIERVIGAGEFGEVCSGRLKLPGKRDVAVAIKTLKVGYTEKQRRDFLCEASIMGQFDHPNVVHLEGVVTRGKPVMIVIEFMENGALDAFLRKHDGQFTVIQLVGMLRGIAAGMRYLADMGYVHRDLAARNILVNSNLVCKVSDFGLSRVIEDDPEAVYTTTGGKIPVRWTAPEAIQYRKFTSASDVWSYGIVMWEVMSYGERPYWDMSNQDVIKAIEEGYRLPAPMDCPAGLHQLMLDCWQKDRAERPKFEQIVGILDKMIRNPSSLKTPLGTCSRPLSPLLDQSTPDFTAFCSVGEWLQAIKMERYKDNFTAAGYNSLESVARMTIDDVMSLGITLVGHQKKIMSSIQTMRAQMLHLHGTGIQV

B1: EphA7 truncated isoform with myc tag (EphA7-T1-myc) (receptor)
chain: not shown
Consider B1, for which the “EphA7-FL tyrosine phosphorylation (phospho-tyrosine over total HA after HA IP) in HEK cells stimulated with clustered ephrin-A5-hFC, at EphA7-T1:FL ratios 1:1 (65%) and 5:1 (42%) compared to 0.2:1” value was 65 % of EphA7-FL tyrosine phosphorylation compared to a ratio of 0.2:1.
